Here are results for nine molecules from patent US6703362 (CYTOGEN, dated 2004).

Experiment [1] concerns the target T1, D2H receptor domain (human D2H transporter, amino acid residues 387-685), His-tag fusion protein (human, UniProt Q07837 387-685).
T1 construct: purified under denaturing conditions; also called recombinant D2H; not shown: poly-histidine tag (pET vector) at the NH2-terminal end
T1 sequence: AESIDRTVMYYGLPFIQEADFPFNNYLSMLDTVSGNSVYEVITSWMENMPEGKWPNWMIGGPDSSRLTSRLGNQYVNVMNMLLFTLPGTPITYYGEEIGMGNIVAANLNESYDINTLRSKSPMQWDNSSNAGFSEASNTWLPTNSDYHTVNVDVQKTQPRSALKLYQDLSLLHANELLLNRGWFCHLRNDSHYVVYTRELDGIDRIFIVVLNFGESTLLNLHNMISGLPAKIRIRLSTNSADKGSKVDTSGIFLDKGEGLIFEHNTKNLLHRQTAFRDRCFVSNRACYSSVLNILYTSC
The experiment is described as follows: phage ELISA, OD on D2H over OD on BSA. Here is the method:
(§1) 6.6. Receptor ELISA Procedure 96 well plates were coated overnight with GIT receptor, BSA and, optionally, IDE (insulin degrading enzyme, an irrelevant His-fusion protein)or hTF. The plates were blocked for one hour with 0.5% BSA-PBS. After clarification, the amplified phage were diluted 1:100 in […] plus 0.05% Tween 20 in PBS and added to the plates. Following incubation of the plates on a rotator for 1 to 2 hours, the plates were washed 5 times with 1% BSA plus 0.05% Tween 20 in PBS. […] After the plates were washed 5 times, as described above, TMB substrate was added to the wells. The plates were read at 650 nm absorbance.
(ELISA stands for enzyme-linked immunosorbent assay.)

In experiment [2] the target is T1, D2H receptor domain (human D2H …). The experiment is described as follows: phage ELISA, plate coated with D2H domain. Here is the method: as §1
The target of experiment [3] is T2, HPT1 receptor domain (human intestinal peptide-associated transporter HPT1, amino acid residues 29-273), … (human, UniProt Q12864 29-273).
T2 construct: purified under denaturing conditions; also called recombinant HPT1; not shown: poly-histidine tag (pET vector) at the NH2-terminal end
T2 sequence: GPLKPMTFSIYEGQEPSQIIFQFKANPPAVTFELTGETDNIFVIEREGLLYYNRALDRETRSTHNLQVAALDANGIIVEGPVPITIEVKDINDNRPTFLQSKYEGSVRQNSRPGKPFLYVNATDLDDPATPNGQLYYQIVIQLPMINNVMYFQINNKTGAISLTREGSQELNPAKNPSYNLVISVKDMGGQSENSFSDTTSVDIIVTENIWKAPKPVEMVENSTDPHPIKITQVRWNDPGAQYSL
The experiment is described as follows: phage ELISA, OD on HPT1 over OD on BSA. Here is the method:
as §1

The target in experiment [4] is T2, HPT1 receptor domain (human intestinal …). The experiment is described as follows: phage ELISA, plate coated with HPT1 domain. Here is the method:
as §1

Experiment [5] deals with T3, hPEPT1 receptor domain (human PEPT1, amino acid residues 391-571), His-tag fusion protein (human, UniProt P46059 391-571).
T3 construct: purified under denaturing conditions; also called recombinant hPEPT1; not shown: poly-histidine tag (pET vector) at the NH2-terminal end
T3 sequence: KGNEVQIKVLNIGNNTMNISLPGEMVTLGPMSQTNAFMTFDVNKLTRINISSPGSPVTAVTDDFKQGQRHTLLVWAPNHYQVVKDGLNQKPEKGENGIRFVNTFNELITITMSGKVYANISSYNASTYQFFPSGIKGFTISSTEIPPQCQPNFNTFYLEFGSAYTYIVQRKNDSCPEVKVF
The experiment is described as follows: phage ELISA, OD on hPEPT1 over OD on BSA. How it is done: as §1

Experiment [6] deals with T3, hPEPT1 receptor domain (human PEPT1, …). The experiment is described as follows: phage ELISA, plate coated with hPEPT1 domain. How it is done: as §1

B1: DAB10 (peptide)
peptide: SKSGEGGDSSRGETGWARVRSHAMTAGRFRWYNQLPSDRAETVESCLAKPHTENSFTNVWKDDKTLDRYANYEGCLWNATGVVVCTGDETQCYGTWVPIGLAIPENEGGGSEGGGSEGGGSEGGGTKPPEYGDTPIPGYTYINPLDGTYPPGTEQNPANPNPSLEESQPLNTFMFQNNRFRNRQGALTVYTGTVTQGTDPVKTYYQYTPVSSKAMYDAYWNGKFRDCAFHSGFNEDPFVCEYQGQSSDLPQPPVNAGGGSGGGSGGGSEGGGSEGGGSEGGGSEGGGSGGGSGSGDFDYEKMANANKGAMTENADENALQSDAKGKLDSVATDYGAAIDGFIGDVSGLANGNGATGDFAGSNSQMAQVGDGDNSPLMNNFRQYLPSLPQSVECRPFVFSAGKPYEFSIDCDKINLFRGVFAFLLYVATFMYVFSTFANILRNKES
notes: Assayed as M13 phage clone displaying the insert
In turn, B1 gave a D2H/BSA in experiment [1] of 4 ratio. Moreover, the OD in experiment [2] was found to be 0.644 OD.

B2: DAX23 (peptide)
peptide: REWRFAGPPLDLWAGPSLPSFNASSHPRALRTYWSQRPRAETVESCLAKPHTENSFTNVWKDDKTLDRYANYEGCLWNATGVVVCTGDETQCYGTWVPIGLAIPENEGGGSEGGGSEGGGSEGGGTKPPEYGDTPIPGYTYINPLDGTYPPGTEQNPANPNPSLEESQPLNTFMFQNNRFRNRQGALTVYTGTVTQGTDPVKTYYQYTPVSSKAMYDAYWNGKFRDCAFHSGFNEDPFVCEYQGQSSDLPQPPVNAGGGSGGGSGGGSEGGGSEGGGSEGGGSEGGGSGGGSGSGDFDYEKMANANKGAMTENADENALQSDAKGKLDSVATDYGAAIDGFIGDVSGLANGNGATGDFAGSNSQMAQVGDGDNSPLMNNFRQYLPSLPQSVECRPFVFSAGKPYEFSIDCDKINLFRGVFAFLLYVATFMYVFSTFANILRNKES
notes: as for B1
As to B2, the D2H/BSA in experiment [1] turned out to be 5 ratio. Moreover, in experiment [2], the OD came to 0.698 OD.

B3: HAX42 (peptide)
peptide: SDHALGTNLRSDNAKEPGDYNCCGNGNSTGRKVFNRRRPSAIPTAETVESCLAKPHTENSFTNVWKDDKTLDRYANYEGCLWNATGVVVCTGDETQCYGTWVPIGLAIPENEGGGSEGGGSEGGGSEGGGTKPPEYGDTPIPGYTYINPLDGTYPPGTEQNPANPNPSLEESQPLNTFMFQNNRFRNRQGALTVYTGTVTQGTDPVKTYYQYTPVSSKAMYDAYWNGKFRDCAFHSGFNEDPFVCEYQGQSSDLPQPPVNAGGGSGGGSGGGSEGGGSEGGGSEGGGSEGGGSGGGSGSGDFDYEKMANANKGAMTENADENALQSDAKGKLDSVATDYGAAIDGFIGDVSGLANGNGATGDFAGSNSQMAQVGDGDNSPLMNNFRQYLPSLPQSVECRPFVFSAGKPYEFSIDCDKINLFRGVFAFLLYVATFMYVFSTFANILRNKES
notes: as for B1
As for B3, the HPT/BSA in experiment [3] worked out at 5 ratio. This molecule also displayed an OD in experiment [4] of 0.32 OD.

B4: P31 (peptide)
peptide: SARDSGPAEDGSRAVRLNGVENANTRKSSRSNPRGRRHPAETVESCLAKPHTENSFTNVWKDDKTLDRYANYEGCLWNATGVVVCTGDETQCYGTWVPIGLAIPENEGGGSEGGGSEGGGSEGGGTKPPEYGDTPIPGYTYINPLDGTYPPGTEQNPANPNPSLEESQPLNTFMFQNNRFRNRQGALTVYTGTVTQGTDPVKTYYQYTPVSSKAMYDAYWNGKFRDCAFHSGFNEDPFVCEYQGQSSDLPQPPVNAGGGSGGGSGGGSEGGGSEGGGSEGGGSEGGGSGGGSGSGDFDYEKMANANKGAMTENADENALQSDAKGKLDSVATDYGAAIDGFIGDVSGLANGNGATGDFAGSNSQMAQVGDGDNSPLMNNFRQYLPSLPQSVECRPFVFSAGKPYEFSIDCDKINLFRGVFAFLLYVATFMYVFSTFANILRNKES
notes: as for B1
In experiment [5], B4 returned a PEPT1/BSA of 11 ratio. The OD in experiment [6] is 0.807 OD.

B5: HAX9 (peptide)
peptide: SREEANWDGYKREMSHRSRFWDATHLSRPRRPANSGDPNAETVESCLAKPHTENSFTNVWKDDKTLDRYANYEGCLWNATGVVVCTGDETQCYGTWVPIGLAIPENEGGGSEGGGSEGGGSEGGGTKPPEYGDTPIPGYTYINPLDGTYPPGTEQNPANPNPSLEESQPLNTFMFQNNRFRNRQGALTVYTGTVTQGTDPVKTYYQYTPVSSKAMYDAYWNGKFRDCAFHSGFNEDPFVCEYQGQSSDLPQPPVNAGGGSGGGSGGGSEGGGSEGGGSEGGGSEGGGSGGGSGSGDFDYEKMANANKGAMTENADENALQSDAKGKLDSVATDYGAAIDGFIGDVSGLANGNGATGDFAGSNSQMAQVGDGDNSPLMNNFRQYLPSLPQSVECRPFVFSAGKPYEFSIDCDKINLFRGVFAFLLYVATFMYVFSTFANILRNKES
notes: as for B1
In experiment [3], B5 returned an HPT/BSA of 5 ratio. The molecule further yielded an OD in experiment [4] of 0.382 OD.

B6: P90 (peptide)
peptide: SSADAEKCAGSLLWWGRQNNSGCGSPTKKHLKHRNRSQTSSSSHAETVESCLAKPHTENSFTNVWKDDKTLDRYANYEGCLWNATGVVVCTGDETQCYGTWVPIGLAIPENEGGGSEGGGSEGGGSEGGGTKPPEYGDTPIPGYTYINPLDGTYPPGTEQNPANPNPSLEESQPLNTFMFQNNRFRNRQGALTVYTGTVTQGTDPVKTYYQYTPVSSKAMYDAYWNGKFRDCAFHSGFNEDPFVCEYQGQSSDLPQPPVNAGGGSGGGSGGGSEGGGSEGGGSEGGGSEGGGSGGGSGSGDFDYEKMANANKGAMTENADENALQSDAKGKLDSVATDYGAAIDGFIGDVSGLANGNGATGDFAGSNSQMAQVGDGDNSPLMNNFRQYLPSLPQSVECRPFVFSAGKPYEFSIDCDKINLFRGVFAFLLYVATFMYVFSTFANILRNKES
notes: as for B1
B6 gave a PEPT1/BSA in experiment [5] of 9 ratio. In experiment [6], this molecule registered an OD of 1.12 OD.

B7: HAX40 (peptide)
peptide: REFAERRLWGCDDLSWRLDAEGCGPTPSNRAVKHRKPRPRSPALAETVESCLAKPHTENSFTNVWKDDKTLDRYANYEGCLWNATGVVVCTGDETQCYGTWVPIGLAIPENEGGGSEGGGSEGGGSEGGGTKPPEYGDTPIPGYTYINPLDGTYPPGTEQNPANPNPSLEESQPLNTFMFQNNRFRNRQGALTVYTGTVTQGTDPVKTYYQYTPVSSKAMYDAYWNGKFRDCAFHSGFNEDPFVCEYQGQSSDLPQPPVNAGGGSGGGSGGGSEGGGSEGGGSEGGGSEGGGSGGGSGSGDFDYEKMANANKGAMTENADENALQSDAKGKLDSVATDYGAAIDGFIGDVSGLANGNGATGDFAGSNSQMAQVGDGDNSPLMNNFRQYLPSLPQSVECRPFVFSAGKPYEFSIDCDKINLFRGVFAFLLYVATFMYVFSTFANILRNKES
notes: Assayed as M13 phage clone displaying the insert; also called H44
Consider B7, for which, in experiment [3], the HPT/BSA was found to be 15 ratio. The same molecule showed an OD in experiment [4] of 0.991 OD.

B8: HCA3 (peptide)
peptide: RHISEYSFANSHLMGGESKRKGCGINGSFSPTCPRSPTPAFRRTAETVESCLAKPHTENSFTNVWKDDKTLDRYANYEGCLWNATGVVVCTGDETQCYGTWVPIGLAIPENEGGGSEGGGSEGGGSEGGGTKPPEYGDTPIPGYTYINPLDGTYPPGTEQNPANPNPSLEESQPLNTFMFQNNRFRNRQGALTVYTGTVTQGTDPVKTYYQYTPVSSKAMYDAYWNGKFRDCAFHSGFNEDPFVCEYQGQSSDLPQPPVNAGGGSGGGSGGGSEGGGSEGGGSEGGGSEGGGSGGGSGSGDFDYEKMANANKGAMTENADENALQSDAKGKLDSVATDYGAAIDGFIGDVSGLANGNGATGDFAGSNSQMAQVGDGDNSPLMNNFRQYLPSLPQSVECRPFVFSAGKPYEFSIDCDKINLFRGVFAFLLYVATFMYVFSTFANILRNKES
notes: as for B1
Regarding B8, the HPT1/BSA in experiment [3] was determined as 1 ratio.

B9: 5PAX5 (peptide)
peptide: RGSTGTAGGERSGVLNLHTRDNASGSGFKPWYPSNRGHKAETVESCLAKPHTENSFTNVWKDDKTLDRYANYEGCLWNATGVVVCTGDETQCYGTWVPIGLAIPENEGGGSEGGGSEGGGSEGGGTKPPEYGDTPIPGYTYINPLDGTYPPGTEQNPANPNPSLEESQPLNTFMFQNNRFRNRQGALTVYTGTVTQGTDPVKTYYQYTPVSSKAMYDAYWNGKFRDCAFHSGFNEDPFVCEYQGQSSDLPQPPVNAGGGSGGGSGGGSEGGGSEGGGSEGGGSEGGGSGGGSGSGDFDYEKMANANKGAMTENADENALQSDAKGKLDSVATDYGAAIDGFIGDVSGLANGNGATGDFAGSNSQMAQVGDGDNSPLMNNFRQYLPSLPQSVECRPFVFSAGKPYEFSIDCDKINLFRGVFAFLLYVATFMYVFSTFANILRNKES
notes: as for B1
As for B9, the PEPT1/BSA in experiment [5] is 4 ratio. This molecule registered an OD in experiment [6] of 0.15 OD.
